Measurements reported in patent US20140348834A1 (published 2014).
Where two headings read alike, the source gives them in different places.

Experiments:
[1] = target: T1, human IL-17A (human, UniProt Q16552 24-155); test: ELISA, captured antibody, serially diluted biotin-IL-17 (Example 1.5.1)
T1 construct: Biotinylated in the ELISA; also called hIL-17; Hu IL-17A
T1 sequence (Q16552 24-155 limits assumed): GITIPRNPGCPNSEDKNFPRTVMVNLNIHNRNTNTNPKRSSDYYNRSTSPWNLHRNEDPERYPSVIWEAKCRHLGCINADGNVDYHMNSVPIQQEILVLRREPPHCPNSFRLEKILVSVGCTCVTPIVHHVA
Method: The following protocol is used to characterize the binding of IL-17 antibodies to human IL-17 by enzyme-linked immunosorbent assay (ELISA). […] 1. Coat ELISA plate with 50 μl per well of Goat anti Mouse IgG-Fc at 2 ug/ml, overnight at 4° C. […] 2. Wash plate 3×PBS/Tween. […] 3. Add 50 μl Mab diluted to 1 μg/ml in PBS/0.1% BSA to appropriate wells. Incubate 1 hr at room temperature (RT). […] 4. Wash plate 3× with PBS/Tween. […] 5. Add 50 μl of serial diluted biotin-IL17 (human IL-17, IL-17A/F, cyno IL-17) to appropriate wells. Incubate 1 hr at room temperature (RT). […] 6. Wash plate 3× with PBS/Tween. […] 7. […] Incubate 1 hr at RT. […] 8. Wash plate 3× with PBS/Tween. […] 9. […] 10. Stop reaction with 50 μl 2N H₂SO₄. […] Read absorbance at 450 nm.

[2] = target: T2, human IL-17A/F (human, UniProt Q16552 24-155; Q96PD4 31-163); test: cell-based or functional assay
T2 sequence (Q16552 24-155 limits assumed, chain 1 of 2): as the sequence (Q16552 24-155 limits assumed) above
T2 sequence (Q96PD4 31-163 limits assumed, chain 2 of 2): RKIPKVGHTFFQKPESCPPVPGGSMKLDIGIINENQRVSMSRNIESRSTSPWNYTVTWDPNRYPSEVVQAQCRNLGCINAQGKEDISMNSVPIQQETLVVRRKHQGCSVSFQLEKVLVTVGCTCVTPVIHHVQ

[3] = target: rabbit IL-17A (rabbit); test: cell-based or functional assay
[4] = target: T3, rat IL-17A (rat, UniProt Q61453 18-150, limits assumed); test: cell-based or functional assay
T3 sequence (looked up): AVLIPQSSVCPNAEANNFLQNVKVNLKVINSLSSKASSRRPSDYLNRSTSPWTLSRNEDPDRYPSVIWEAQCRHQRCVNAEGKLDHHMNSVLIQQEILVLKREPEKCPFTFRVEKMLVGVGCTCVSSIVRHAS

[5] = target: T4, mouse IL-17A (mouse, UniProt Q62386 26-158, limits assumed); test: cell-based or functional assay
T4 sequence (looked up): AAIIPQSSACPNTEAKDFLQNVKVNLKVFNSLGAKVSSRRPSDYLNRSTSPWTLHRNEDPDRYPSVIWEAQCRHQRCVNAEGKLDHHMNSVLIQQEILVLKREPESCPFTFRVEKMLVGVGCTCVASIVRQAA

[6] = target: T5, cynomolgous monkey (cyno) IL-17A (cynomolgus monkey, UniProt A0A2K5TTB0 24-155); test: cell-based or functional assay
T5 sequence (A0A2K5TTB0 entry or part of it): as the sequence (Q16552 24-155 limits assumed) above, with T3A, P8S, N34S, I77V, N78K, P104R counted along it

[7] = target: T1, human IL-17A; test: cell-based or functional assay
[8] = target: T2, human IL-17A/F; test: cell-based or functional assay; remark: listed apart in the source
[9] = target: T5, cynomolgous monkey (cyno) IL-17A; test: cell-based or functional assay; remark: listed apart in the source
[10] = target: T1, human IL-17A; test: cell-based or functional assay; remark: listed apart in the source
[11] = target: T6, human IL-17A (human, UniProt Q16552 24-155); test: hIL17A ELISA
T6 construct: Recombinant; biotinylated in the ELISA; also called hIL-17; hIL17A
T6 sequence (Q16552 24-155): as the sequence (Q16552 24-155 limits assumed) above

[12] = target: T7, cynomolgus monkey IL-17A (cynomolgus monkey, UniProt A0A2K5TTB0 24-155); test: cell-based or functional assay
T7 sequence (A0A2K5TTB0 entry or part of it): as the sequence (Q16552 24-155 limits assumed) above, with T3A, P8S, N34S, I77V, N78K, P104R counted along it

[13] = target: T8, rat IL-17A (rat, UniProt Q61453 18-150, limits assumed); test: cell-based or functional assay; remark: listed apart in the source
T8 sequence (looked up): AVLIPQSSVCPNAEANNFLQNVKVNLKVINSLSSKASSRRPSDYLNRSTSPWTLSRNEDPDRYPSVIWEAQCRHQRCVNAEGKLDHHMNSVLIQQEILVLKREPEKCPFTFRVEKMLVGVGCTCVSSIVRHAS

[14] = target: T6, human IL-17A; test: cell-based or functional assay; remark: listed apart in the source
[15] = target: T7, cynomolgus monkey IL-17A; test: SPR (Biacore 3000), antibody captured by anti-Fc, antigen in solution;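 also: purified recombinant IL-17 antigens flowed over captured antibodies in HBS-EP buffer, global Langmuir one-to-one fit of association and dissociation phases, KD derived from koff over kon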
Method: (§1) The binding of antibodies to purified recombinant human, cyno, rat, mouse, rabbit IL-17 and human IL-17A/F were determined by surface plasmon resonance-based measurements with a Biacore® 3000 instrument (Biacore® AB, Uppsala, Sweden) using running HBS-EP (10 mM HEPES [pH 7.4], 150 mM NaCl, 3 mM EDTA, and 0.005% surfactant P20) at 25° C. […] Approximately 5000 RU of goat anti-mouse or anti-human IgG (Fcγ) fragment specific polyclonal antibody (Pierce Biotechnology Inc, Rockford, Ill.) diluted in 10 mM sodium acetate (pH 4.5) was directly immobilized across a CM5 research grade biosensor chip using a standard amine coupling kit according to manufacturer's instructions and procedures at 25 μg/ml. Unreacted moieties on the biosensor surface were blocked with ethanolamine. Modified carboxymethyl dextran surface in flowcell 2 and 4 was used as a reaction surface. Unmodified carboxymethyl dextran without goat anti-mouse or anti-human IgG in flow cell 1 and 3 was used as the reference surface. For kinetic analysis, rate equations derived from the 1:1 Langmuir binding model were fitted simultaneously to association and dissociation phases of all eight injections (using global fit analysis) with the use of Biaevaluation 4.0.1 software. Purified antibodies were diluted in HEPES-buffered saline for capture across goat anti-mouse or anti-human IgG specific reaction surfaces. Antibodies to be captured as a ligand (25 μg/ml) were injected over reaction matrices at a flow rate of 5 μl/min. The association and dissociation rate constants, kon (unit M-1s-1) and koff (unit s-1) were determined under a continuous flow rate of 25 μl/min. Rate constants were derived by making kinetic binding measurements at ten different antigen concentrations ranging from 10 nM to 200 nM. The equilibrium dissociation constant (unit M) of the reaction between antibodies and recombinant purified IL-17 antigens was then calculated from the kinetic rate constants by the following formula: KD=koff/kon. Binding was recorded as a function of time and kinetic rate constants are calculated. In this assay, on-rates as fast as 10⁶ M⁻¹ s⁻¹ and off-rates as slow as 10⁻⁶ s⁻¹ can be measured.

[16] = target: T9, human IL-17A/F (human, UniProt Q16552 24-155; Q96PD4 31-163); test: as above
T9 construct: Recombinant; biotinylated in the ELISA; also called hIL-17A/F; HuIL-17A/F
T9 sequence (Q16552 24-155, chain 1 of 2): as the sequence (Q16552 24-155 limits assumed) above
T9 sequence (Q96PD4 31-163, chain 2 of 2): as the sequence (Q96PD4 31-163 limits assumed, chain 2 of 2) above
Method: as §1

[17] = target: T8, rat IL-17A; test: as above
Method: as §1

[18] = target: T10, mouse IL-17A (mouse, UniProt Q62386 26-158, limits assumed); test: as above
T10 construct: Purified recombinant protein in SPR; also called MuIL-17A; murine IL-17A
T10 sequence (looked up): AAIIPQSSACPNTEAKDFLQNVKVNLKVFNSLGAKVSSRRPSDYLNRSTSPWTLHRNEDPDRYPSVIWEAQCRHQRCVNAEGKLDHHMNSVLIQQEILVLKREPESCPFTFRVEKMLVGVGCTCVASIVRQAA
Method: as §1

[19] = target: T6, human IL-17A; test: as above
Method: as §1

B1: IL17-B6-5 (antibody, V domains shown)
VH: EVQLVQSGAEVKKPGESVKISCKASGGSFRSYGISWVRQAPGQGLEWMGGITHFFGITDYAQKFQGRVTITADESTTTAYMELSGLTSDDTAVYYCAREPNDFWNGYYDTHDFDSWGQGTTVTVSS
VL: EIVLTQSPDFQSVTPKEKVTITCRASQNIGSELHWYQQKPDQSPKLLIKYASHSISGVPSRFSGSGSGTDFTLTINGLEAEDAATYYCHQSDTLPHTFGQGTKVDIK
notes: also called pJP243 B6.1 #5VH / pJP244 B6.1 #5VK
B1 was tested, and the EC50 [1] was 0.22 nM, the “Potency (pM), IL-17-driven IL-6 production in HS27 cells” value (“Potency (pM) … in HS27 cells” below) [2] was 134 pM and the “Potency (pM), IL-17 and TNF-induced IL-6 secretion from NIH3T3 cells” value (from here on “Potency (pM) … from NIH3T3 cells”) [3] was 320 pM. For the same binder, the “Potency (pM) … from NIH3T3 cells” value [4] was 73 pM, the “Potency (pM) … from NIH3T3 cells” value [5] was 64 pM and the “Potency (pM) … in HS27 cells” value [6] was 12 pM. For the same binder, the “Potency (pM) … in HS27 cells” value [7] was 18 pM.

B2: IL17-B6-17 (antibody, V domains shown)
VH: EVQLVQSGAEVKKPGSSVKVSCKASGGSFGGYGIGWVRQAPGQGLEWMGGITPFFGFADYAQKFQGRVTITADESTTTAYMELSGLTSDDTAVYYCARDPNEFWNGYYSTHDFDSWGQGTTVTVSS
VL: EIVLTQSPDFQSVTPKEKVTITCRASQDIGSELHWYQQKPDQPPKLLIKYASHSTSGVPSRFSGSGSGTDFTLTINGLEAEDAGTYYCHQTDSLPYTFGPGTKVDIK
notes: also called pJP249 B6.1 #17VH / pJP252 B6.1 #17Vk
For B2, the EC50 [1] was 0.13 nM, the “Potency (pM) … in HS27 cells” value [2] was 137 pM and the “Potency (pM) … from NIH3T3 cells” value [3] was 232 pM. For the same binder, the “Potency (pM) … from NIH3T3 cells” value [4] was 111 pM, the “Potency (pM) … from NIH3T3 cells” value [5] was 69 pM and the “Potency (pM) … in HS27 cells” value [6] was 11 pM. The “Potency (pM) … in HS27 cells” value [7] was 15 pM.

B3: IL17-TN-L7-C8 (antibody, V domains shown)
VH: EVQLVQSGAEVKKPGASVKVSCKASGYTFSDFDIDWVRQATGLGLEWMGWMNPNSGNTGVAPKFRGRVSMTFNTAIRTAYLELSSLRPDDTAVYFCARSSESEGITIGFDNWGQGTLVTVSS
VL: SYELTQPPSVSVSPGQTASIPCSGDKLGNRYACWYKQKPGQPPVLVIYQDNKRPSGISERYSGSNYGDTATLTITGTQAMDEADYYCQTWDSTTGSYVFGTGTKVTVLG
notes: Fully human monoclonal antibody from mRNA display; also called IL-TN-L7-C8
In the case of B3, the EC50 [1] is reported as 0.517 nM, the “Potency (nM), IL-17-driven IL-6 production in HS27 cells” value (from here on “Potency (nM)”) [8] is reported as 2.6 nM and the “Potency (nM)” value [9] is reported as 18 nM. For the same binder, the “Potency (nM)” value [10] was 4.5 nM.

B4: IL17-TN-L7-G9 (antibody, V domains shown)
VH: EVQLLESGGGVVQPGRSLRLSCAASGFIFSNYGMHWVRQAPGKGLEWVAVISYDGSNKYYADSVKGRFTISRDNSKNTLYLEMNSLRPEDTAVYYCAKVGASGDYYYSYGLDVWGQGTTVTVSS
VL: QSGLTQPPSASGTPGQTVSISCSGSNSNIGSHSVNWYQQVPGAAPKLLMYGIGQRPSGVPDRFSVSQSGTSASLAISGLQSEDEADYYCATWDDSLGGYVFGSGTKVTVLG
notes: Fully human monoclonal antibody from mRNA display
With B4 the EC50 [1] was 0.165 nM, the “Potency (nM)” value [8] was 2 nM and the “Potency (nM)” value [9] was 12 nM. The “Potency (nM)” value [10] was 0.8 nM.

B5: IL17-TN-L7-A7 (antibody, V domains shown)
VH: EVQLLESGGGVVQPGTFLRLSCAATGFTFSAYGMHWVRQAPGRGLEWVAVTSYDGSNKYYADSVKGRFTISRDNSKNTLYLEMNSLRPEDTAVYYCAKVGASGDYYYSYGLDVWGQGTMVTVSS
VL: QSGLTQPPSASGTPGQTVSISCSGSNSNIGSHSVNWYQQVPGAAPKLLMYGIGQRPSGVPDRFSVSQSGTSASLAISGLQSEDEADYYCATWDDSLGGYVFGSGTKVTVLG
notes: as for B4
B5 was tested, and the EC50 [1] was 0.131 nM, the “Potency (nM)” value [8] was 1.8 nM and the “Potency (nM)” value [9] was 12 nM. The “Potency (nM)” value [10] was 1.8 nM.

B6: IL17-h5C5.3 (antibody, V domains shown)
VH: EVQLVQSGAEVKKPGASVKVSCKASGYTFTDYEFHWVRQAPGQGLEWIGVIHPGNGGTAYNQNFRDRATLTADKSTSTAYMELSSLRSEDTAVYYCTRFLTYEGYFDYWGQGTLVTVSS
VL: NIVMTQTPKFLLVSPGDRVTITCKASQSVSIDVGWFQQKPGQSPKLLIYHASNRYTGVPDRFTGSGYGTDFTFTVNTVQAEDLAVYFCQQDYSSPYTFGGGTKLELKR
notes: IgG; constant regions not specified
B6 was tested, and the EC50 [11] was 1.37 nM, the “Potency (pM) … in HS27 cells” value [12] was 12 pM and the “Potency (pM), IL-17 and TNF-alpha-driven IL-6 production in NIH3T3 cells” value (“Potency (pM) … in NIH3T3 cells” below) [13] was 2520 pM. For the same binder, the “Potency (pM) … in HS27 cells” value [14] was 5 pM.

B7: m5C5.hIgG1 (antibody, V domains shown)
VH: QVQLQQSGAELVRPGASVKLSCKALGYTFTDYEFHWVKQTPVHGLEWIGVIHPGNGGTAYNQNFRDKATLTADKSSSTAYMELSSLTSEDSGVYYCTRFLTYEGYFDYWGQGTALTVSS
VL: NIVMTQTPKFLLVSPGDRVTITCKASQSVSIDVGWFQQKPGQSPKLLIYHASNRYTGVPDRFTGSGYGTDFTFTVNTVQAEDLAVYFCQQDYSSPYTFGGGTKLELKR
With B7 the “Potency (pM) … in NIH3T3 cells” value [13] was 4910 pM and the “Potency (pM) … in HS27 cells” value [14] was 11 pM.

B8: IL17-h5C5.9 (antibody, V domains shown)
VH: EVQLVQSGAEVKKPGASVKVSCKASGYTFTDYEFHWVRQAPGQGLEWIGVIHPGNGGTAYNQNFRDRATLTADKSTSTAYMELSSLRSEDTAVYYCTRFLTYEGYFDYWGQGTLVTVSS
VL: DIQMTQSPSSLSASVGDRVTITCKASQSVSIDVGWFQQKPGKSPKLLIYHASNRYTGVPSRFSGSGSGTDFTFTISSLQPEDFATYFCQQDYSSPYTFGQGTKLEIKR
notes: IgG; constant regions not specified; also called h5C5.9 (VH.1b-Vk.1a)
With B8 the EC50 [11] was 0.03 nM, the Kd [15] was 0.228 nM and the koff [15] was 0.000239 s⁻¹. The kon [15] was 1.05e+06 M⁻¹ s⁻¹, the Kd [16] was 1.21 nM and the koff [16] was 0.00115 s⁻¹. It also gave a kon [16] of 950000 M⁻¹ s⁻¹, a Kd [17] of 8.48 nM and a koff [17] of 0.00958 s⁻¹. For the same binder, the kon [17] was 1.13e+06 M⁻¹ s⁻¹, the Kd [18] was 2.09 nM and the koff [18] was 0.000582 s⁻¹. The kon [18] was 279000 M⁻¹ s⁻¹, the Kd [19] was 0.44 nM and the koff [19] was 0.000449 s⁻¹. The kon [19] was 1.02e+06 M⁻¹ s⁻¹, the “Potency (pM) … in HS27 cells” value [12] was 19 pM and the “Potency (pM) … in NIH3T3 cells” value [13] was 5680 pM. For the same binder, the “Potency (pM) … in HS27 cells” value [14] was 14 pM.

B9: IL17-h5C5.8 (antibody, V domains shown)
VH: EVQLVQSGAEVKKPGASVKVSCKASGYTFTDYEFHWVRQAPGQGLEWMGVIHPGNGGTAYNQNFRDRVTITADKSTSTAYMELSSLRSEDTAVYYCARFLTYEGYFDYWGQGTLVTVSS
VL: DIQMTQSPSSLSASVGDRVTITCKASQSVSIDVGWFQQKPGKSPKLLIYHASNRYTGVPSRFSGSGSGTDFTFTISSLQPEDFATYFCQQDYSSPYTFGQGTKLEIKR
notes: IgG; constant regions not specified; also called h5C5.8 (VH.1-Vk.1a)
B9 gave an EC50 [11] of 0.07 nM, a Kd [15] of 0.217 nM and a koff [15] of 0.000226 s⁻¹. It also gave a kon [15] of 1.04e+06 M⁻¹ s⁻¹, a Kd [16] of 1.28 nM and a koff [16] of 0.00121 s⁻¹. For the same binder, the kon [16] was 948000 M⁻¹ s⁻¹, the Kd [17] was 14.2 nM and the koff [17] was 0.011 s⁻¹. For the same binder, the kon [17] was 774000 M⁻¹ s⁻¹, the Kd [18] was 1.86 nM and the koff [18] was 0.000531 s⁻¹. For the same binder, the kon [18] was 285000 M⁻¹ s⁻¹, the Kd [19] was 0.393 nM and the koff [19] was 0.000444 s⁻¹. For the same binder, the kon [19] was 1.13e+06 M⁻¹ s⁻¹, the “Potency (pM) … in HS27 cells” value [12] was 20 pM and the “Potency (pM) … in NIH3T3 cells” value [13] was 13100 pM. The “Potency (pM) … in HS27 cells” value [14] was 17 pM.

B10: IL17-TN-K7-B6 (antibody, V domains shown)
VH: EVQLVQSGAEVKKPGESLKISCKASGGSFRSYGISWVRQAPGQGLEWMGGITPILGTANYAQKFQGRVTITADESTTTAYMELSGLTSDDTAVYYCAREPNDFWNGYYTTHHFDYWGQGTPVTVSS
VL: DVVMTQSPDFQSVTPKEKVTITCRASQNIGSALHWYQQKPDQSPKLLIKYASQSISGVPSRFSGSGSGTDFTLTINGLEAEDAGTYYCHQSTSLPHTFGQGTKLDIKR
notes: as for B4
B10 was tested, and the EC50 [1] was 0.447 nM, the “Potency (nM)” value [8] was 8.1 nM and the “Potency (nM)” value [9] was 18 nM. The “Potency (nM)” value [10] was 4.5 nM.
